# Biological target: T1, EGFR (Epidermal Growth Factor Receptor) (human, UniProt P00533 26-444, limits assumed)
# T1 construct: also called EGF receptor
# Experiment: phage ELISA, wells coated with 4 ug/ml EGFR, anti-M13-HRP, OD 650 nm
# Procedure: (§1) Individual colonies were randomly selected from the output titration plate of the last round, and inoculated in 1 ml of super broth (3% tryptone, 2% yeast extract, 1% 3-[N-Morpholino] propanesulfonic acid [MOPS], pH 7.0). after overnight incubation at 37° C., the supernatant was used for phage ELISA (enzyme-linked immunosorbant assay). microtitration plate wells were coated with 4 μg/ml EGFR-containing PBS at 4° C. for one night, and blocked with 3% BSA-containing PBS at 37° C. for 1 hour. The plate was cultured with the phage-containing supernatant at 37° C. for 2 hours, and washed with 0.05% Tween-20-containing PBS (PBST) three times. Thereafter, HRP (horseradish peroxidase)-conjugated anti-M13 antibody (Sigma) diluted in a blocking buffer solution (1:2000) was added thereto and cultured at 37° C. for 1 hour. 50 μl of TMB substrate solution (Pierce, Rockford, Ill.) was added to each well, and OD was measured at 650 nm.
row,Binder,binding result
1,"wild type 1OZJ scaffold (B chain of 1OZJ, crystal structure of Smad3-MH1) (other, human, UniProt P84022 1-144, looked up, domain: Smad3-MH1; 6; also called WT) MSSILPFTPPIVKRLLGWKKGEQNGQEEKWCEKAVKSLVKKLKKTGQLDELEKAITTQNVNTKCITIPRSLDGRLQVSHRKGLPHVIYCRLWRWPDLHSHHELRAMELCEFAFNMKKDEVCVNPYHYQRVETPVLPPVLVPRHT",no binding

# Biological target: T1, EGFR (Epidermal Growth Factor Receptor)
# Experiment: phage ELISA, wells coated with 4 ug/ml EGFR, anti-M13-HRP
# Procedure: as §1
row,Binder,OD at 650 nm [OD]
1,"wild type 1OZJ scaffold (B chain of 1OZJ, crystal structure of Smad3-MH1) (other, human, UniProt P84022 1-144, looked up, domain: Smad3-MH1; 6; also called WT) MSSILPFTPPIVKRLLGWKKGEQNGQEEKWCEKAVKSLVKKLKKTGQLDELEKAITTQNVNTKCITIPRSLDGRLQVSHRKGLPHVIYCRLWRWPDLHSHHELRAMELCEFAFNMKKDEVCVNPYHYQRVETPVLPPVLVPRHT",0.086
2,clone 6 of the 1OZJ scaffold (designed binder) MSSILPFTPPIVKRLLGWKKGEQNGQEEKWCEKAVKSLVKKLKSTGQLDELEKAITTQNVNTKCITIPRSLDGRLQVSHRKGLPHVIYCRLWRWPDLHSHHELRAMGLCSFAFNMKKLEVCVNPYHYQRVETPVLPPVLVPRHT,1.83
3,clone 7 of the 1OZJ scaffold (designed binder) MSSILPFTPPIVKRLLGWKKGEQNGQEEKWCEKAVKSLVKKLKLTGQLDELEKAITTQNVNTKCITIPRSLDGRLQVSHRKGLPHVIYCRLWRWPDLHSHHELRAMALCAFAFMMKKCEVCVNPYHYQRVETPVLPPVLVPRHT,1.74
4,"clone 8 of the 1OZJ scaffold (designed binder, domain: Smad3-MH1) MSSILPFTPPIVKRLLGWKKGEQNGQEEKWCEKAVKSLVKKLKGTGQLDELEKAITTQNVNTKCITIPRSLDGRLQVSHRKGLPHVIYCRLWRWPDLHSHHELRAMPLCNFAFTMKKPEVCVNPYHYQRVETPVLPPVLVPRHT",1.18
5,clone 9 of the 1OZJ scaffold (designed binder) MSSILPFTPPIVKRLLGWKKGEQNGQEEKWCEKAVKSLVKKLKATGQLDELEKAITTQNVNTKCITIPRSLDGRLQVSHRKGLPHVIYCRLWRWPDLHSHHELRAMQLCIFAFLMKKPEVCVNPYHYQRVETPVLPPVLVPRHT,1.75
6,"clone 31 of the 1OZJ scaffold (designed binder, domain: Smad3-MH1) MSSILPFTPPIVKRLLGWKKGEQNGQEEKWCEKAVKSLVKKLKGTGQLDELEKAITTQNVNTKCITIPRSLDGRLQVSHRKGLPHVIYCRLWRWPDLHSHHELRAMHLCPFAFKMKKWEVCVNPYHYQRVETPVLPPVLVPRHT",0.959

# More lines, now with the values ahead:
row,OD at 650 nm [OD],Binder
1,0.919,"clone 43 of the 1OZJ scaffold (designed binder, domain: Smad3-MH1) MSSILPFTPPIVKRLLGWKKGEQNGQEEKWCEKAVKSLVKKLKRTGQLDELEKAITTQNVNTKCITIPRSLDGRLQVSHRKGLPHVIYCRLWRWPDLHSHHELRAMHLCNFAFGMKKAEVCVNPYHYQRVETPVLPPVLVPRHT"
2,1.02,"clone 53 of the 1OZJ scaffold (designed binder, domain: Smad3-MH1) MSSILPFTPPIVKRLLGWKKGEQNGQEEKWCEKAVKSLVKKLKATGQLDELEKAITTQNVNTKCITIPRSLDGRLQVSHRKGLPHVIYCRLWRWPDLHSHHELRAMSLCSFAFSMKKIEVCVNPYHYQRVETPVLPPVLVPRHT"
3,1.16,"clone 54 of the 1OZJ scaffold (designed binder, domain: Smad3-MH1) MSSILPFTPPIVKRLLGWKKGEQNGQEEKWCEKAVKSLVKKLKCTGQLDELEKAITTQNVNTKCITIPRSLDGRLQVSHRKGLPHVIYCRLWRWPDLHSHHELRAMILCDFAFPMKKREVCVNPYHYQRVETPVLPPVLVPRHT"
4,0.964,"clone 55 of the 1OZJ scaffold (designed binder, domain: Smad3-MH1) MSSILPFTPPIVKRLLGWKKGEQNGQEEKWCEKAVKSLVKKLKITGQLDELEKAITTQNVNTKCITIPRSLDGRLQVSHRKGLPHVIYCRLWRWPDLHSHHELRAMKLCRFAFPMKKDEVCVNPYHYQRVETPVLPPVLVPRHT"
